# Measured values from publication PMC3156124.
# Key:
# [1] = biological target: GEP100 (UniProt Q6DN90); assay: anti-HA (GEP100) IP, anti-V5 (VEGFR2) blot; conditions: reference: wild type VEGFR2-V5; sites Y951
# [2] = biological target: GEP100 PH domain (UniProt Q6DN90); assay: peptide dot-blot overlaid with GST-PH; conditions: reference: non-phosphorylated Tyr951 peptide; sites Y951
substance,measurement,setting,value
VEGFR2 (from UniProt P35968) 951F,binding against the reference,[1],lost
VEGFR2 Tyr951 peptide (from UniProt P35968) pY951 peptide,binding against the reference,[2],gained
